The record followed here is patent publication US20230055411A1 (UNIVERSIT DE BRETAGNE OCCIDENTALE UBO, published 2023).

For experiment [1], the target named is T1, peptide 2B (biotinylated in the ELISA of Figure 3 panel A).
T1 construct: also called STIM1 aa 97 to 127
In words: ELISA, biotinylated peptide 2B at 10 ng/well, B-Y12 in 1/10 steps. As to the method: (§1) FIG. 3 illustrated the validation by Elisa of the monoclonal anti-STIM1 antibody clone B-Y12. […] Anti-STIM1 mAb clone B-Y12 mAb (10 μg/ml) was diluted to 1/10 and antigens STIM1 biotinylated peptides used at concentrations of 50 ng/well for peptides 1A and 1B and 100 ng/well for peptide 2A and 10 ng/well for peptide 2B). Panel B: Specificity of the B-Y12 antibody for STIM1 is confirmed by ELISA using the peptide 1A and a recombinant STIM1 EF/SAM peptide (1 μg/mL). B-Y12 mAb used at 100 μg/mL diluted to 1/10. Panel C: Specificity for the B-Y12 antibody for the peptide 1A over the other peptides (1A, 1B, 2A, 2B, C2, C3, C4, C5, C6, C7 and C8. Peptides are used at a concentration of 1 μg/mL. Histograms represents mean optical density (OD) measured using an Elisa approach.

Experiment [2] has as its target T2, recombinant STIM1 EF/SAM peptide (STIM1 aa 58 to 201) (human, UniProt Q13586 58-201).
T2 construct: also called STIM1 EF/Hand peptide; soluble recombinant protein corresponding to the STIM1 EF-Hand domain
In words: Octet (BLI), 1 to 1 fitting model, EF-SAM peptide at 200, 133.5 and 88.9 nM. As to the method: (§2) FIG. 10 represents the determination of the anti-STIM1 mAb clone B-Y12 affinity. […] High affinity interaction is characterized by a low K, a fast recognizing (high kon) and a stable formation of complexes (low kdis). kdis: dissociation rate constant. kon: complex formation rate.
(§3) Affinity constants (Kon, Kdis) were calculated.
A general note: BLI is a label-free optical method that tracks binding on a fibre tip over time.

Experiment [3] addresses T3, peptide 1B (biotinylated in the ELISA of Figure 3 panel A).
T3 construct: also called STIM1 aa 169 to 197
In words: ELISA, biotinylated peptide 1B at 50 ng/well, B-Y12 in 1/10 steps. As to the method:
as §1
In general terms: An ELISA detects its analyte on a solid surface through an enzyme-linked reagent.

For experiment [4], the target named is T2, recombinant STIM1 EF/SAM peptide (STIM1 …). In words: Octet, 1 to 1 fitting model, EF-SAM peptide at 200 nM; column kdis(1/S) [table row 200]. As to the method:
as §2, §3

Experiment [5] deals with T4, STIM1 peptide 1A (STIM1 amino acids 128 to 168) (human, biotinylated in the ELISA of FIG. 3A (position not given)).
T4 construct: Immunization peptide from the SAM domain of STIM1
T4 sequence (peptide, as listed by the source): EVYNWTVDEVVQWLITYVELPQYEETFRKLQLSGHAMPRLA
In words: ELISA, Peptide 1A (aa 128-168) coated at 1 µg/mL, B-Y12 titrated. As to the method:
as §1

For experiment [6], the target named is T2, recombinant STIM1 EF/SAM peptide (STIM1 …). In words: Octet, 1 to 1 fitting model, EF-SAM peptide at 200 nM [table row 200]. As to the method:
as §2, §3

Experiment [7] shares this target. In words: Octet, 1 to 1 fitting model, EF-SAM peptide at 133,5 nM [table row 133,5]. As to the method:
as §2, §3

The target is the same in experiment [8]. In words: Octet, 1 to 1 fitting model, EF-SAM peptide at 133,5 nM; column kdis(1/S) [table row 133,5]. As to the method:
as §2, §3

The target is the same in experiment [9]. In words: Octet, 1 to 1 fitting model, EF-SAM peptide at 88,8 nM [table row 88,8]. As to the method: as §2, §3
Experiment [10] shares this target. In words: Octet, 1 to 1 fitting model, EF-SAM peptide at 88,8 nM; column kdis(1/S) [table row 88,8]. As to the method:
as §2, §3

For experiment [11], the target named is T5, peptide 2A (biotinylated in the ELISA of Figure 3 panel A).
T5 construct: also called STIM1 aa 62 to 95
T5 sequence (peptide, as listed by the source): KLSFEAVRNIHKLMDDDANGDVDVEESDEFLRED
In words: ELISA, biotinylated peptide 2A at 100 ng/well, B-Y12 in 1/10 steps. As to the method: as §1

Experiment [12] concerns the target T6, STIM1 protein, mouse (plasma membrane STIM1 on spleen B and T cells of MRL/Lpr and C57Bl/6 mice) (mouse, UniProt P70302 23-685).
T6 construct: whole, on cells; also called mSTIM1 (mouse)
In words: direct flow cytometry with PE coupled B-Y12, spleen B cells of MRL/Lpr mice (n=4) [B cells]. (In general: Flow cytometry measures light scatter and fluorescence of single cells or particles in a stream.)

T2 sequence (Q13586 58-201): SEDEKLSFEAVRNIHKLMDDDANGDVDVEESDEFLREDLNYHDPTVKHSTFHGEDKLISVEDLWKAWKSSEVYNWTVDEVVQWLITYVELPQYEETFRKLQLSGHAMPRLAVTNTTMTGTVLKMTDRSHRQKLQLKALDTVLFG
T6 sequence (P70302 23-685): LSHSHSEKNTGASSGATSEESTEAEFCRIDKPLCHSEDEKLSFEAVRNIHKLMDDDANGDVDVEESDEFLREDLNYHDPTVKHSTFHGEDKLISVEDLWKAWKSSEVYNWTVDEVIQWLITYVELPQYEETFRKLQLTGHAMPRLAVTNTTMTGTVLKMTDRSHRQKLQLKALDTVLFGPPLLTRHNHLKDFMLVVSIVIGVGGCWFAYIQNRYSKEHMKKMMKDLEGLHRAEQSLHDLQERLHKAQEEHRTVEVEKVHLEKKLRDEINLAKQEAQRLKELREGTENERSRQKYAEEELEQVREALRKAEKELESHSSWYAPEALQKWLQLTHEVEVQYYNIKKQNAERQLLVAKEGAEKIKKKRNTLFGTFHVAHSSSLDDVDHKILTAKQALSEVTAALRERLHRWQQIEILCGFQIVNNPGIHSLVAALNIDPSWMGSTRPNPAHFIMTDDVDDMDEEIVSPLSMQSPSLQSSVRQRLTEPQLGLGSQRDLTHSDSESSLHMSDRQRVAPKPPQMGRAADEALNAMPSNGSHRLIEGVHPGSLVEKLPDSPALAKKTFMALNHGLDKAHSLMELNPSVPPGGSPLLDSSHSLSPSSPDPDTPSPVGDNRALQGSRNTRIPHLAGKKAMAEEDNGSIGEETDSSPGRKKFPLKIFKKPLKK
T3 sequence (peptide, as listed by the source): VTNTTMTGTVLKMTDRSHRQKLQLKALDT
T1 sequence (peptide, as listed by the source): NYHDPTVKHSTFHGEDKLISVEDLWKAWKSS

B1: monoclonal anti-STIM1 antibody clone B-Y12 (antibody, IgG2b, V domains shown)
VH: QVQLQQPGAELVKPGASVKLSCKASGYTFTSYWMHWVKLRPGQGFEWIGETNPRNGGTNYNEKFKRKATLTVDKSSSTAYMQLSSLTSEDSAVYYCTITKTVRATWYFDYWGQGTTLTVSS
VL: DVLMTQTPLSLPVSLGDQASISCRSSQSIVHSNGNTYLEWYLQKPGQSPKLLIYKVSNRFSGVPDRFSGSGSGTDFTLKISRVEAEDLGVYYCFQGSHVPYTFGGGTKLEIK
notes: In direct flow cytometry it was used coupled to phycoerythrin (PE); also called B-Y12 mAb; anti-STIM1 mAb clone B-Y12
On to B1, for which the binding result is recorded as “no binding” in experiment [1], “no binding” in experiment [3], “no binding” in experiment [11] and “binds” in [12]. Moreover, the Kd (in general, the concentration at which binding is half-saturated) in experiment [2] turned out to be 15 nM. Also, the koff (commonly the rate constant with which the complex falls apart) in experiment [4] was found to be 0.0004 s⁻¹; in experiment [8], 0.000322 s⁻¹; in experiment [10] it was 0.000354 s⁻¹. For the same molecule, in experiment [5], the EC50 (read off the curve) – broadly, the concentration that produces a half-maximal response – was around 4 ng/mL. The values for the kon in experiment [6], in experiment [7] and in experiment [9] were 20000 M⁻¹ s⁻¹, 23700 M⁻¹ s⁻¹ and 18800 M⁻¹ s⁻¹, respectively.
